Results on four molecules are retold here after publication PMC3637846 (Nature, 2013).

Changes are numbered by the printed parent chain.

Experiment [1] has as its target heterologous T/F Env C.1086 (HIV-1 subtype C, isolate 1086 (T/F), UniProt C6G099, strain). Put plainly: ELISA. A general note: ELISA stands for enzyme-linked immunosorbent assay.
In experiment [2] the target is CH505 transmitted/founder (T/F) Env gp140 (HIV-1 subtype C, CH505 (703010505) …, strain). Put plainly: SPR. Background: Surface plasmon resonance follows binding to a sensor surface in real time, without labels.

B1: CH103 unmutated common ancestor (UCA) mAb (antibody, V domains shown)
VH: QVQLQESGPGLVKPSETLSLTCTVSGGSISSYYWSWIRQPPGKGLEWIGYIYYSGSTNYNPSLKSRVTISVDTSKNQFSLKLSSVTAADTAVYYCASLPRGQLVNAYFDYWGQGTLVTVSS
VL: not shown
Consider B1, for which, in experiment [1], the binding result is given as “no binding”.

B2: inferred intermediate antibody I1 (antibody, V domains shown)
V domain 1: QVQLQESGPGVVKSSETLSLTCTVSGGSMGGTYWSWLRLSPGKGLEWIGYIFHTGHTNYSPSLKGRVSISVDTSEDQFSLRLRSVTAADTAVYFCASLPRGQLVNAYFRNWGRGTLVSVTA
V domain 2: SYELTQPPSVSVSPGQTATITCSGDKVASKNVCWYQVKPGQSPEVVMYENYKRPSGIPDRFSGSKSGSTATLTIRGTQATDEADYYCQVWDSFSTFVFGSGTQVTV
For B2, the binding result in experiment [2] was “binds”.

B3: CH103 (full-length IgG1 recombinant mAb) (antibody, V domains shown)
V domain 1: B2 V domain 1 with H56E, T115S
V domain 2: SYELTQPPSVSVSPGQTATITCSGASTNVCWYQVKPGQSPEVVIFENYKRPSGIPDRFSGSKSGSTATLTIRGTQAIDEADYYCQVWDSFSTFVFGSGTQVTV
In the case of B3, the binding result in experiment [2] is “binds”.

B4: CH104 (full-length IgG1 recombinant mAb) (antibody, V domains shown)
V domain 1: B2 V domain 1 with S60N, K64E
V domain 2: B2 V domain 2 with P54A
Regarding B4, the binding result in experiment [2] was “binds”.
